We go through 2 molecules from patent US20200016266A1 (INIS BIOTECH, published 2020).

Test [1] concerns the target T1, Galectin-1 (human recombinant Gal1) (human, UniProt P09382 2-135, DyLight 594 label in the FRET assay only).
T1 construct: Recombinant Gal1 made in-house; also called rhGal1; 594-Gal1
The test can be described thus: SPR, BIAEvaluation 3.0, 1:1 kinetic model. The protocol: By using the BIAEvaluation 3.0 software in a kinetics model of interaction adjustment 1:1, kinetic parameters, constants of dissociation (Kd) and affinity (Ka) were calculated.
(In general: Surface plasmon resonance follows binding to a sensor surface in real time, without labels.)

Test [2] has as its target T2, QPGSVAEVCITFD
T2 construct: 13-mer of the Gal1 peptide array, axis label
T2 peptide: QPGSVAEVCITFD
The test can be described thus: PEPperMAP conformational epitope mapping peptide array, fluorescence intensity [a.u.].

The target in test [3] is T3, TFDQANLTVKLPD
T3 construct: 13-mer of the Gal1 peptide array, axis label
T3 peptide: TFDQANLTVKLPD
The description is as above.

For test [4], the target named is T4, LPDGYEFKFPNRL
T4 construct: 13-mer of the Gal1 peptide array, axis label
T4 peptide: LPDGYEFKFPNRL
The test is described as above.

Test [5] has as its target T5, GLVASNL.
T5 construct: 7-mer of the Gal1 peptide array, axis label
T5 peptide: GLVASNL
Described as above.

Test [6] has as its target T6, PGECLRV.
T6 construct: 7-mer of the Gal1 peptide array, axis label
T6 peptide: PGECLRV
Described as above.

The target of test [7] is T7, VAPDAKS.
T7 construct: 7-mer of the Gal1 peptide array, axis label
T7 peptide: VAPDAKS
The test is described as above.

Test [8] deals with T8, NLGKDSN.
T8 construct: 7-mer of the Gal1 peptide array, axis label
T8 peptide: NLGKDSN
The description is as above.

Test [9] addresses T2, QPGSVAEVCITFD
The test is described as above.

In test [10] the target is T3, TFDQANLTVKLPD
The description is as above.

Test [11] deals with T4, LPDGYEFKFPNRL
The test is described as above.

In test [12] the target is T5, GLVASNL. Described as above.
In test [13] the target is T6, PGECLRV. The description is as above.
For test [14], the target named is T7, VAPDAKS. The description is as above.
Test [15] addresses T8, NLGKDSN. The test is described as above.

Changes are numbered by the printed parent chain. Read-outs that look alike come from different tables or passages of the source.

T1 sequence (P09382 2-135 limits assumed): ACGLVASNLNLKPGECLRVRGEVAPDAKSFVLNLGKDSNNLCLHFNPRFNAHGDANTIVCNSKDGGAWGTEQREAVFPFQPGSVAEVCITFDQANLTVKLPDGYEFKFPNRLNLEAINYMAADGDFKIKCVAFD

B1: anti-Gal1 Clone 21, fully human monoclonal antibody (antibody, V domains shown)
VH: EVQLLESGGGLVQPGGSLRLSCAASGFTFSSYAMSWVRQAPGKGLEWVSEIGRVGVNTLYADSVKGRFTISRDNSKNTLYLQMNSLRAEDTAVYYCAKKATQFDYWGQGTLVTVSS
VL: DIQMTQSPSSLSASVGDRVTITCRASQSISSYLNWYQQKPGKAPKLLIYRASRLQSGVPSRFSGSGSGTDFTLTISSLQPEDFATYYCQQTIGPPDTFGQGTKVEIKR
notes: also called MAb21; Human Ab 21
In general, Kd refers to the free concentration of one partner at which half of the binding sites on the other are occupied at equilibrium, for simple one-to-one binding. For the molecule B1, in test [1], the Ka was determined as 649000 M⁻¹. Besides, the Kd in test [1] worked out at 1540 nM. Besides, the binding result with QPGSVAEVCITFD [2], with TFDQANLTVKLPD [3], in the test with LPDGYEFKFPNRL [4], with GLVASNL [5], in the test with PGECLRV [6] and with VAPDAKS [7] was “no binding (tested: 10 µg/ml)” each time. The binding result with NLGKDSN [8] is “no binding (tested: 10 µg/ml)”.

B2: anti-Gal1 Clone 42, fully human monoclonal antibody (antibody, V domains shown)
VH: EVQLLESGGGLVQPGGSLRLSCAASGFTFSSYAMSWVRQAPGKGLEWVSGISGSGDYTSYADSVKGRFTISRDNSKNTLYLQMNSLRAEDTAVYYCAKGYGAFDYWGQGTLVTVSS
VL: B1 VL with R50G, R53W, T91S, I92A, G93N, P94Y, D96S
notes: also called MAb42; Human Ab 42
Turning to B2, the Ka in test [1] was determined as 7.63e+06 M⁻¹. In addition, the Kd in [1] is 131 nM. Also, the binding result with QPGSVAEVCITFD [9], with TFDQANLTVKLPD [10], with LPDGYEFKFPNRL [11], with GLVASNL [12], with PGECLRV [13] and with VAPDAKS [14] was “no binding (tested: 10 µg/ml)” each time. The binding result in the test with NLGKDSN [15] is on record as “no binding (tested: 10 µg/ml)”.
